Among the data in paper PMC8279337 are triglyceride hydrolase activity of the ATGL lysate on [9,10-3H]-triolein (DPM), 2 and 10 ug MBP-G0S2, compared with HisMBP; DPM smaller values, retold here.

For the assay, the target named is Adipose Triglyceride Lipase (UniProt Q96AD5).
UniProt Q96AD5, sequence (Q96AD5 whole entry): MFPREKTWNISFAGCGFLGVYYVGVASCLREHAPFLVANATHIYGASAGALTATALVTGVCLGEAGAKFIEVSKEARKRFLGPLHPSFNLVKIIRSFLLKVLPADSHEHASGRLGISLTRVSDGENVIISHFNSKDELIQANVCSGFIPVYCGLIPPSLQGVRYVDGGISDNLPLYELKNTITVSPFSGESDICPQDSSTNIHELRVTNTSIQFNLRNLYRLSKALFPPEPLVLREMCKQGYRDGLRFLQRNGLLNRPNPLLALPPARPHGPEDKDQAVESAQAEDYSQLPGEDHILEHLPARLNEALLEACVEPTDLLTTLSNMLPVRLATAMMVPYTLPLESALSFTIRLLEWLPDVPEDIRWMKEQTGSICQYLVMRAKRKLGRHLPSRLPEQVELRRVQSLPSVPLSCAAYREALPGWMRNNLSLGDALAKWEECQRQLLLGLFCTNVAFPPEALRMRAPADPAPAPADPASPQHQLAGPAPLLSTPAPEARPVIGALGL

For the substance “MBP-G0S2 (full length G0S2 with N-terminal His6 and maltose-binding protein) (from UniProt Q61585 1-103) (natural protein)”, the triglyceride hydrolase activity of the ATGL lysate on [9,10-3H]-triolein (DPM), 2 and 10 ug MBP-G0S2, compared with HisMBP; DPM smaller at 10 ug than at 2 ug is 60%.
